Measurements as given in ChEMBL document CHEMBL2073902, “A functional study on polymorphism of the ATP-binding cassette transporter ABCG2: critical role of arginine-482 in methotrexate transport” (Biochem J, 2003).

Substrate: CN(Cc1cnc2nc(N)nc(N)c2n1)c1ccc(C(=O)N[C@@H](CCC(=O)O)C(=O)O)cc1
Test: TP_TRANSPORTER: uptake (vesicle) in membrane vesicle from ABCG2-expressing HEK-293 cells
Assay type: functional, cell membranes, HEK293

B1: Broad substrate specificity ATP-binding cassette transporter ABCG2 (Homo sapiens) (protein)
chain: MSSSNVEVFIPVSQGNTNGFPATASNDLKAFTEGAVLSFHNICYRVKLKSGFLPCRKPVEKEILSNINGIMKPGLNAILGPTGGGKSSLLDVLAARKDPSGLSGDVLINGAPRPANFKCNSGYVVQDDVVMGTLTVRENLQFSAALRLATTMTNHEKNERINRVIQELGLDKVADSKVGTQFIRGVSGGERKRTSIGMELITDPSILFLDEPTTGLDSSTANAVLLLLKRMSKQGRTIIFSIHQPRYSIFKLFDSLTLLASGRLMFHGPAQEALGYFESAGYHCEAYNNPADFFLDIINGDSTAVALNREEDFKATEIIEPSKQDKPLIEKLAEIYVNSSFYKETKAELHQLSGGEKKKKITVFKEISYTTSFCHQLRWVSKRSFKNLLGNPQASIAQIIVTVVLGLVIGAIYFGLKNDSTGIQNRAGVLFFLTTNQCFSSVSAVELFVVEKKLFIHEYISGYYRVSSYFLGKLLSDLLPMRMLPSIIFTCIVYFMLGLKPKADAFFVMMFTLMMVAYSASSMALAIAAGQSVVSVATLLMTICFVFMMIFSGLLVNLTTIASWLSWLQYFSIPRYGFTALQHNEFLGQNFCPGLNATGNNPCNYATCTGEEYLVKQGIDLSPWGLWKNHVALACMIVIFLTIAYLKLLFLKKYS
Km: 5.7 mM
